From publication doi:10.1101/2023.03.10.531533 (bioRxiv, 2023)

Legend:
[1] = molecular target: recombinant SARS-CoV-2 S-6P spike protein (SARS-CoV-2 Wuhan, UniProt P0DTC2, stabilised); assay: ELISA
[2] = molecular target: SARS-CoV-2 Wuhan spike protein on HEK293T cells (SARS-CoV-2 Wuhan, UniProt P0DTC2); assay: flow cytometry on cells
[3] = molecular target: recombinant prefusion stabilized SARS-CoV-2 spike protein (S-2P) (SARS-CoV-2 Wuhan, UniProt P0DTC2, stabilised); assay: HDX-MS

Measured: binding result

B1: VHH R3DC23 (VHH)
VHH: QVQLQESGGGLVQAGDSLTLSCAVSGRIFSTYTMGWFRQAPGKEREFVAAVRWGAGTIYYADSMKGRFTISRDSAKNTVDLQMNSTKPEDTAVYYCGAAYVSKANYGSLWYQDSRRYDYWGQGTQVTVSS
binds: all assays above
